Source: patent US20230056252A1 (Gilead, published 2023)
Where a chain is given by its changes, count along the chain named.

B1: huSP34.2.4 Fab-HF (Fab, V domains shown)
VH: EVQLVESGGGLVQPGGSLRLSCAASGFTFSTYAMNWVRQAPGKGLEWVGRIRSKYNNYATYYAASVKGRFTISRDDSKNSLYLQMNSLKTEDTAMYYCVRHGNFGNSYVSWFAVWGQGTLVTVSS
VL: QAVVTQEPSLTVSPGGTVTLTCGSSTGAVTTSHYANWVQQKPGQAPRGLIGGTSKRAPWTPARFSGSLLGGKAALTLSGAQPEDEAEYYCALWYSALWVFGGGTKLTVL
B2: huSP34.5.6 Fab-HF (Fab, V domains shown)
VH: B1 VH with A64D, D76N, S80T, K89R, T90A, M95V, N106H
VL: B1 VL with E7P, S32G, K55N, W59G, T60V, L69S, L77I, L97R
B3: huSP34.5.1 Fab-HF (Fab, V domains shown)
VH: B1 VH with A64D, D76N, S80T, K89R, T90A, M95V, N106H
VL: B1 VL with G23R, H33N, S54N, L69I, G71D, A96N
B4: huSP34.5.5 Fab-HF (Fab, V domains shown)
VH: B1 VH with A64D, D76N, S80T, K89R, T90A, M95V, N106H
VL: B1 VL with S32G, K55N, L97R
B5: huSP34.4.5 Fab-HF (Fab, V domains shown)
VH: B1 VH with K89R, M95V, N106H
VL: B1 VL with S32G, K55N, L97R
B6: huSP34.5.2 Fab-HF (Fab, V domains shown)
VH: B1 VH with A64D, D76N, S80T, K89R, T90A, M95V, N106H
VL: B1 VL with H33N, K55N, A96N
B7: huSP34.2.5 Fab-HF (Fab, V domains shown)
VH: B1 VH
VL: B1 VL with S32G, K55N, L97R
B8: huSP34.5.4 Fab-HF (Fab, V domains shown)
VH: B1 VH with A64D, D76N, S80T, K89R, T90A, M95V, N106H
VL: B1 VL
B9: huSP34.4.4 Fab-HF (Fab, V domains shown)
VH: B1 VH with K89R, M95V, N106H
VL: B1 VL
B10: hPGT121.66 AAS + W/huSP34.34.11 scFv AAS + SAV + R (bispecific antibody, human IgG1, lambda, L234A L235A)
chain: EVQLVESGGGLVQPGGSLRLSCAASGFTFNTYAMNWVRQAPGKGLEWVGRIRSKYNNYATYYAASVKGRFTISRDDSKNSLYLQMNSLKTEDTAMYYCVRHGNFGHSYVSWFAYWGQGTLVTVSSGGGGSGGGGSGGGGSGGGGSQAVVTQEPSLTVSPGGTVTLTCGSSTGAVTTGHYANWVQQKPGQAPRGLIGGTNKRAPGVPARFSGSLLGGKAALTLSGAQPEDEAEYYCALWYSNLWVFGGGTKLTVLEPKSSDKTHTCPPCPAPEAAGGPSVFLFPPKPKDTLMISRTPEVTCVVVDVSHEDPEVKFNWYVDGVEVHNAKTKPREEQYNSTYRVVSVLTVLHQDWLNGKEYKCKVSNKALPASIEKTISKAKGQPREPQVYTLPPSREEMTKNQVSLSCAVKGFYPSDIAVEWESNGQPENNYKTTPPVLDSDGSFFLVSKLTVDKSRWQQGNVFSCSVMHEALHNRYTQKSLSLSPGK
heavy: QMQLQESGPGLVKPSETLSLTCSVSGASISDSYWSWIRRSPGKGLEWIGYVHKSGDTNYNPSLKSRVHLSLDTSKNQVSLSLTGVTAADSGKYYCARTLHGRRIYGIVAFNEWFTYFYMDVWGTGTQVTVSSASTKGPSVFPLAPSSKSTSGGTAALGCLVKDYFPEPVTVSWNSGALTSGVHTFPAVLQSSGLYSLSSVVTVPSSSLGTQTYICNVNHKPSNTKVDKKVEPKSCDKTHTCPPCPAPEAAGGPSVFLFPPKPKDTLMISRTPEVTCVVVDVSHEDPEVKFNWYVDGVEVHNAKTKPREEQYNSTYRVVSVLTVLHQDWLNGKEYKCKVSNKALPASIEKTISKAKGQPREPQVYTLPPSREEMTKNQVSLWCLVKGFYPSDIAVEWESNGQPENNYKTTPPVLDSDGSFFLYSKLTVDKSRWQQGNVFSCSVMHEALHNHYTQKSLSLSPGK
light: not shown
B11: hPGT121.66 AAS + W/huSP34.34.10 scFv AAS + SAV + R (bispecific antibody, human IgG1, lambda, L234A L235A)
chain: B10 chain with E152P, L214S, L222I, L242R
heavy: B10 heavy
light: not shown
B12: hPGT121.66 AAS + W/huSP34.3.13 scFv AAS + SAV + R (bispecific antibody, human IgG1, lambda, L234A L235A)
chain: B10 chain with A64D, K89R, M95V, N199S, K200N, L222I, L242R
heavy: B10 heavy
light: not shown
B13: hPGT121.66 AAS + W/huSP34.34.12 scFv AAS + SAV + R (bispecific antibody, human IgG1, lambda, L234A L235A)
chain: B10 chain with E152P, G204W, V205T, L214S, L222I, L242R
heavy: B10 heavy
light: not shown
B14: hPGT121.66 AAS + W/huSP34.27.8 scFv AAS + SAV + R (bispecific antibody, human IgG1, lambda, L234A L235A)
chain: B10 chain with R19S, N30S, T60E, S80T, K89R, M95V, L222I, L242R
heavy: B10 heavy
light: not shown
notes: also called 270; bispecific 270
B15: hPGT121.66 AAS + W/huSP34.28.8 scFv AAS + SAV + R (bispecific antibody, human IgG1, lambda, L234A L235A)
chain: B10 chain with R19S, N30S, G68S, S80T, K89R, M95V, L222I, L242R
heavy: B10 heavy
light: not shown
notes: also called 271; bispecific 271
B16: hPGT121.66 AAS + W/huSP34.19.8scFv AAS + SAV + R (bispecific antibody, human IgG1, lambda, L234A L235A)
chain: B10 chain with N30S, S80T, Q84E, K89R, M95V, L222I, L242R
heavy: B10 heavy
light: not shown
B17: hPGT121.66 AAS + W/huSP34.14.8scFv AAS + SAV + R (bispecific antibody, human IgG1, lambda, L234A L235A)
chain: B10 chain with R19S, N30S, S80T, K89R, M95V, L222I, L242R
heavy: B10 heavy
light: not shown
B18: hPGT121.66 AAS + W/huSP34.25.8scFv AAS + SAV + R (bispecific antibody, human IgG1, lambda, L234A L235A)
chain: B10 chain with N30S, T60A, G68S, S80T, K89R, M95V, L222I, L242R
heavy: B10 heavy
light: not shown
B19: hPGT121.66 AAS + W/huSP34.33.8 scFv AAS + SAV + R (bispecific antibody, human IgG1, lambda, L234A L235A)
chain: B10 chain with N30S, G68S, S80T, Q84E, K89R, M95V, L222I, L242R
heavy: B10 heavy
light: not shown
B20: hPGT121.66 AAS + W/huSP34.26.8scFv AAS + SAV + R (bispecific antibody, human IgG1, lambda, L234A L235A)
chain: B10 chain with R19S, N30S, T60A, S80T, K89R, M95V, L222I, L242R
heavy: B10 heavy
light: not shown

These binders were tested against T1, CD3 expressed on cell-surface of primary human T cells (human, UniProt P07766 23-207; P04234 22-171) (assay: flow cytometry competition vs murine SP34-AF488 on human T cells, n = 1).
T1 construct: also called cell-surface CD3; human CD3

B1 and B2 cannot be ordered by IC50: > 20 µg/mL for the first, > 20 µg/mL for the second.

B3 and B4 cannot be ordered by IC50: > 20 µg/mL for the first, > 20 µg/mL for the second.

B5 and B6 cannot be ordered by IC50: > 20 µg/mL for the first, > 20 µg/mL for the second.

B7 and B8 cannot be ordered by IC50: > 20 µg/mL for the first, > 20 µg/mL for the second.

For B9, the IC50 was > 20 µg/mL.

What follows are binders tested against T2, biotinylated CD3 epsilon:delta heterodimer protein (Amsbio AMS.CDD-H52WO) (Homo sapiens (Human), UniProt P07766 23-126; P04234 22-105) (assay: BLI (Octet), CD3 on SA sensor, bispecific analyte).
T2 construct: also called CD3 heterodimer

Point of comparison: B12, Kd 16.8 nM. Against it:
- B10 — within 1.5-fold, 16 nM
- B11 — 2-fold lower, 8.4 nM
- B13 — 1.7-fold lower, 9.9 nM

Point of comparison: B11, koff 0.00083 s⁻¹. Against it:
- B10 — 2.1-fold higher, 0.00172 s⁻¹
- B12 — 2.1-fold higher, 0.00171 s⁻¹
- B13 — 5.2-fold higher, 0.00431 s⁻¹

Point of comparison: B13, kon 433000 M⁻¹ s⁻¹. Against it:
- B10 — 3.7-fold lower, 116000 M⁻¹ s⁻¹
- B11 — 3.6-fold lower, 120000 M⁻¹ s⁻¹
- B12 — 4.1-fold lower, 106000 M⁻¹ s⁻¹

Each binder was assayed against T3, biotinylated Human CD3E and CD3D (Acro Biosystems Cat CDD-H82W1) (human, UniProt P07766 23-126; P04234 22-105) (assay: SPR (Biacore 4000), CD3 captured on streptavidin chip;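 note: bispecific antibodies or Fabs injected at several concentrations over CD3 surfaces of varying density, sensorgrams fitted with a simple kinetic model to obtain association, dissociation and equilibrium constants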).
T3 construct: also called biotinylated CD3

Point of comparison: B10, Kd 3.9 nM. Against it:
- B11 — the same, 3.9 nM
- B12 — 1.6-fold lower, 2.4 nM
- B13 — 8.2-fold higher, 32 nM

Point of comparison: B12, koff 0.0084 s⁻¹. Against it:
- B10 — 1.5-fold higher, 0.0129 s⁻¹
- B11 — within 1.5-fold, 0.0102 s⁻¹
- B13 — within 1.5-fold, 0.0119 s⁻¹

Point of comparison: B11, kon 2.6e+06 M⁻¹ s⁻¹. Against it:
- B10 — within 1.5-fold, 3.3e+06 M⁻¹ s⁻¹
- B12 — within 1.5-fold, 3.6e+06 M⁻¹ s⁻¹
- B13 — 7-fold lower, 370000 M⁻¹ s⁻¹

These binders were tested against T1, CD3 expressed on cell-surface of … (assay: flow cytometry competition vs murine SP34-AF488 on human T cells, n = 2).

B1 and B2 cannot be ordered by IC50: > 20 µg/mL for the first, > 20 µg/mL for the second.

B3 and B4 cannot be ordered by IC50: > 20 µg/mL for the first, > 20 µg/mL for the second.

B5 and B6 cannot be ordered by IC50: > 20 µg/mL for the first, > 20 µg/mL for the second.

B7 and B8 cannot be ordered by IC50: > 20 µg/mL for the first, > 20 µg/mL for the second.

For B9, the IC50 was > 20 µg/mL.

Target: T2, biotinylated CD3 epsilon:delta …
Assay: BLI (Octet), CD3 on SA sensor, bispecific analyte
Remark: another data set of the same source

Point of comparison: B17, Kd 24.3 nM. Against it:
- B14 — 1.8-fold lower, 13.2 nM
- B15 — 1.5-fold lower, 15.8 nM
- B16 — 1.7-fold lower, 14.7 nM
- B18 — 2.3-fold lower, 10.6 nM
- B19 — 1.6-fold lower, 15.3 nM
- B20 — 2.6-fold lower, 9.3 nM

Point of comparison: B15, koff 0.00134 s⁻¹. Against it:
- B14 — within 1.5-fold, 0.001 s⁻¹
- B16 — within 1.5-fold, 0.00104 s⁻¹
- B17 — within 1.5-fold, 0.000932 s⁻¹
- B18 — within 1.5-fold, 0.000928 s⁻¹
- B19 — within 1.5-fold, 0.00118 s⁻¹
- B20 — 2.7-fold lower, 0.000504 s⁻¹

Point of comparison: B17, kon 39000 M⁻¹ s⁻¹. Against it:
- B14 — 2-fold higher, 76300 M⁻¹ s⁻¹
- B15 — 2.2-fold higher, 84600 M⁻¹ s⁻¹
- B16 — 1.9-fold higher, 72200 M⁻¹ s⁻¹
- B18 — 2.2-fold higher, 87600 M⁻¹ s⁻¹
- B19 — 2-fold higher, 77400 M⁻¹ s⁻¹
- B20 — within 1.5-fold, 55900 M⁻¹ s⁻¹
